From PMC3988186 come the findings set out here.

One series concerns the target beta-arrestin 1 (UniProt P49407). The conditions noted are these: 2'-F pyrimidines (2'F-C, 2'F-U); Kd assay buffer not stated separately; selection buffer F: 20 mM HEPES pH 7.4, 150 mM NaCl, 1 mM CaCl2, 1 mM MgCl2, 0.01% BSA, 37 C.
In the next series the target is beta-arrestin 2 (UniProt P32121). The conditions noted are these: 2'-F pyrimidines (2'F-C, 2'F-U); Kd assay buffer not stated separately; selection buffer F: 20 mM HEPES pH 7.4, 150 mM NaCl, 1 mM CaCl2, 1 mM MgCl2, 0.01% BSA, 37 C.
Chain of beta-arrestin 2 (P32121 whole entry): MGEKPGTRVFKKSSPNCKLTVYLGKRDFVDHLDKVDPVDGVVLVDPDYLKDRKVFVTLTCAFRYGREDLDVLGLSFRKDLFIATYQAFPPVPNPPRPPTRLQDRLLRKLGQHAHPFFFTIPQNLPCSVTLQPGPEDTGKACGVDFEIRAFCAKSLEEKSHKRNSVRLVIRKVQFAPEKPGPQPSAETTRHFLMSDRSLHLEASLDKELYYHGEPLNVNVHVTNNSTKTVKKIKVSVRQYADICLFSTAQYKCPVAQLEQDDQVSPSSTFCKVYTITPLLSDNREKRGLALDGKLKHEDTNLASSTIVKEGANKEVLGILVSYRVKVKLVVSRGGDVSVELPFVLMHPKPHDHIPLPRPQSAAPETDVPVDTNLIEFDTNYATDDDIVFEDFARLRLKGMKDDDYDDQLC

Chain of beta-arrestin 1 (P49407 whole entry): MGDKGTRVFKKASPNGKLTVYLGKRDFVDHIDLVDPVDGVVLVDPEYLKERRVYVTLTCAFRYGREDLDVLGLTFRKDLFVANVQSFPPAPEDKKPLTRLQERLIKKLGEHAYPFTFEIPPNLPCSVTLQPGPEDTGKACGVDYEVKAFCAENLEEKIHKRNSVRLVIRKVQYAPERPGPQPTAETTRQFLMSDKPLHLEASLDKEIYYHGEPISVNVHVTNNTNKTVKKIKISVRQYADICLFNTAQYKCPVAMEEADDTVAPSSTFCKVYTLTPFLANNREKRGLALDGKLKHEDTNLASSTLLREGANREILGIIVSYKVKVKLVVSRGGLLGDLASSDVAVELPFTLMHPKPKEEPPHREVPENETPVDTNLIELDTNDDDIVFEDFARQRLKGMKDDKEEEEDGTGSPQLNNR

What is called Kd is the concentration at which binding is half-saturated. A high value points to weaker binding. For “GGGAGGACGAUGCGGCCAGGUGUAGACAGACGUGAGAGAUUGACCUGGCAGCAGCCAGACGACUCGCUGAGGAUCCGAGA [beta-arr2A2]”, the Kd with beta-arrestin 1 was 2160 nM; with beta-arrestin 2, 4.13 nM.

Take “GGGAGGACGAUGCGGAUUCCGUUAAGUAUCGCGUUAAACGCUAUGCGGACGCGUCAGACGACUCGCUGAGGAUCCGAGA [beta-arr2A1]”: the dissociation constant Kd is 966 nM with beta-arrestin 1 and 19.8 nM in the series with beta-arrestin 2.

Regarding “GGGAGGACGAUGCGGAUCCUCGUCCCGUCACGGCAGAACCACGUCAGGCCUUCAACAGACGACUCGCUGAGGAUCCGAGA [beta-arr2A3]”, the Kd worked out at 748 nM with beta-arrestin 1 and 22 nM in the series with beta-arrestin 2.
